Measurements: patent US20220119490A1 (Genentech, published 2022)

B1: mouse PDPN (receptor, UniProt Q62011 23-141, looked up)
chain: GTIGVNEDDIVTPGTGDGMVPPGIEDKITTTGATGGLNESTGKAPLVPTQRERGTKPPLEELSTSATSDHDHREHESTTTVKVVTSHSVDKKTSHPNRDNAGDETQTTDKKDGLPVVTL
B2: CEACAM4 expressed on cells (receptor, human, UniProt O75871 36-244, looked up)
chain: FTIEALPSSAAEGKDVLLLACNISETIQAYYWHKGKTAEGSPLIAGYITDIQANIPGAAYSGRETVYPNGSLLFQNITLEDAGSYTLRTINASYDSDQATGQLHVHQNNVPGLPVGAVAGIVTGVLVGVALVAALVCFLLLSRTGRASIQRDLREQPPPASTPGHGPSHRSTFSAPLPSPRTATPIYEELLYSDANIYCQIDHKADVVS
notes: whole, on cells
B3: PD-L2 extracellular domain (ligand, human, UniProt Q9BQ51 20-220, looked up)
chain: LFTVTVPKELYIIEHGSNVTLECNFDTGSHVNLGAITASLQKVENDTSPHRERATLLEEQLPLGKASFHIPQVQVRDEGQYQCIIIYGVAWDYKYLTLKVKASYRKINTHILKVPETDEVELTCQATGYPLAEVSWPNVSVPANTSHSRTPEGLYQVTSVLRLKPPPGRNFSCVFWNTHVRELTLASIDLQSQMEPRTHPT
notes: extracellular domain; ECD construct; also called PDCD1LG2; programmed cell death 1 ligand 2
B4: CEACAM4 extracellular domain (receptor, human, UniProt O75871 36-155, looked up)
chain: FTIEALPSSAAEGKDVLLLACNISETIQAYYWHKGKTAEGSPLIAGYITDIQANIPGAAYSGRETVYPNGSLLFQNITLEDAGSYTLRTINASYDSDQATGQLHVHQNNVPGLPVGAVAG
notes: extracellular domain; ECD construct

Key:
mouse CD177 = target: T1, mouse CD177 (mouse, UniProt Q8R2S8 22-796, limits assumed); test: SPR
T1 sequence (looked up): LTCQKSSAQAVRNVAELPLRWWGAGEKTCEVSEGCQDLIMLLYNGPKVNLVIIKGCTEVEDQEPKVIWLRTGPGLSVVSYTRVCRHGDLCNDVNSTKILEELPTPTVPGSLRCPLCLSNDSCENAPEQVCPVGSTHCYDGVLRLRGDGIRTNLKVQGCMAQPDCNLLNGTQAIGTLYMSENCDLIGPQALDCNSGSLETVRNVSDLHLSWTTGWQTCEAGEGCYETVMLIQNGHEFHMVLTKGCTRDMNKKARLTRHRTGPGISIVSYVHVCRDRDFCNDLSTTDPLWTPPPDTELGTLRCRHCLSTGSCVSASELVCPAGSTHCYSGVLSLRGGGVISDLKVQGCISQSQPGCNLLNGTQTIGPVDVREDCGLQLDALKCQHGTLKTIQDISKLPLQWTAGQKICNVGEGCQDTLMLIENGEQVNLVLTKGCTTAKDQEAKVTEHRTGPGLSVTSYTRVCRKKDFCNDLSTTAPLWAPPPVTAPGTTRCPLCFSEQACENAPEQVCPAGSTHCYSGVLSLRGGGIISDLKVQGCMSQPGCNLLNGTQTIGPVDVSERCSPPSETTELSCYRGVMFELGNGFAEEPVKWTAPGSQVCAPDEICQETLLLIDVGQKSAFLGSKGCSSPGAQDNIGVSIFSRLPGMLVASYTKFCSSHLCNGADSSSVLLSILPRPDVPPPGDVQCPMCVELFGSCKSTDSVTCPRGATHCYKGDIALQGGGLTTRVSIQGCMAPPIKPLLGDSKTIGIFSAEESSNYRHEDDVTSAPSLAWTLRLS

[1] = target: T2, PD-L1 extracellular domain (human, UniProt Q9NZQ7 19-238); test: cell surface interaction assay: PD-L1 ECD tetramer on transfected cells (FIG. 4F)
T2 construct: extracellular domain; ECD construct; also called CD274; programmed cell death 1 ligand 1
T2 sequence (Q9NZQ7 19-238): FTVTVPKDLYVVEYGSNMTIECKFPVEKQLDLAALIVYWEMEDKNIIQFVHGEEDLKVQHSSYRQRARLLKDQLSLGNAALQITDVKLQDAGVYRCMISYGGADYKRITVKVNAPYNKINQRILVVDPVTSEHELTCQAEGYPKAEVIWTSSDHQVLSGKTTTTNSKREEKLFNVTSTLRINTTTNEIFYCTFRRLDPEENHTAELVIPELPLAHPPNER

ICAM5 = target: T3, ICAM5 (human, UniProt Q9UMF0); test: extracellular interaction screen, normalized intensity; labelled dot against the clone named on the axis; which is query and which prey is not given; colour of the predicted class lost
T3 construct: extracellular domain
T3 sequence (extracellular domain construct of the screen, looked up): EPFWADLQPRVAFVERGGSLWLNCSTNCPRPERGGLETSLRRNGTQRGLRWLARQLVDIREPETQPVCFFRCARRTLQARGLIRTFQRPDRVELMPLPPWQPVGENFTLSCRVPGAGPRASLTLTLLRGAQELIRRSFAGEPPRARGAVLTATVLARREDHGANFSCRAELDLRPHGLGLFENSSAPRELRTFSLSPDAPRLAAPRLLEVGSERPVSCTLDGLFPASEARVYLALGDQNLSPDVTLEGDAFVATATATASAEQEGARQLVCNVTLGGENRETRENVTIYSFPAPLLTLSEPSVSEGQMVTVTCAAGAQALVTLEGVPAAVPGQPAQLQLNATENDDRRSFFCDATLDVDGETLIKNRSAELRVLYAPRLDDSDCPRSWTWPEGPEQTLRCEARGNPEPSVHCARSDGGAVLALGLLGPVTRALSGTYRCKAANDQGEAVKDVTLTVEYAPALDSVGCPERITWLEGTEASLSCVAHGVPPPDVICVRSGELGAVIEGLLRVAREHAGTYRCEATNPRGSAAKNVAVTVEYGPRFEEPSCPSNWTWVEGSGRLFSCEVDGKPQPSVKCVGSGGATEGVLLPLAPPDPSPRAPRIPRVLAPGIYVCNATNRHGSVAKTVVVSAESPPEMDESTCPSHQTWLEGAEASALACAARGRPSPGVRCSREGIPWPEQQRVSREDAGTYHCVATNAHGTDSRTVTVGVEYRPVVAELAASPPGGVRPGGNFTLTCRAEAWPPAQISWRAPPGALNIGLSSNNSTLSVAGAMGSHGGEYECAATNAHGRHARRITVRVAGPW

[2] = target: B2; test: cell surface interaction assay: PD-L2 ECD tetramer on transfected cells (FIG. 4F)
[3] = target: T4, CEACAM5 expressed on cells (human, UniProt P06731 35-685); test: as above
T4 construct: whole, on cells
T4 sequence (looked up): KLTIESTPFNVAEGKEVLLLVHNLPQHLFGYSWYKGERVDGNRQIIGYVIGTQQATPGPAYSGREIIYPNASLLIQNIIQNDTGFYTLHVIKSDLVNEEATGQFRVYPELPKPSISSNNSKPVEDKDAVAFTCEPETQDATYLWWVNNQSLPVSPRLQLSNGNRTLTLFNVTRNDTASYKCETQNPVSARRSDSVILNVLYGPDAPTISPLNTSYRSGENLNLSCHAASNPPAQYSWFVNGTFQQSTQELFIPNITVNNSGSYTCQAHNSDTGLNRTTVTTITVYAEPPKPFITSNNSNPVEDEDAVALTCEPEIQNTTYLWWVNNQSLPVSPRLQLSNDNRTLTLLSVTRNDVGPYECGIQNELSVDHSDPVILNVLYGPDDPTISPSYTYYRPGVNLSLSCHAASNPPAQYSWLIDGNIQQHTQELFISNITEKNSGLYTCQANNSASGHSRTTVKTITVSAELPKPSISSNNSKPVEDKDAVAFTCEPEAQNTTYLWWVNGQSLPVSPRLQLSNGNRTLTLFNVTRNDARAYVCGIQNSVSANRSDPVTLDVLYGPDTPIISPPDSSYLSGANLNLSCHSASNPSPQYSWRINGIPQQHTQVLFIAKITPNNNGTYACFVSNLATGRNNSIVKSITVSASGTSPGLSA

PD-L1 expressed on cells = target: T5, PD-L1 expressed on cells (human, UniProt Q9NZQ7 19-290); test: as above
T5 construct: whole, on cells; also called CD274
T5 sequence (Q9NZQ7 19-290): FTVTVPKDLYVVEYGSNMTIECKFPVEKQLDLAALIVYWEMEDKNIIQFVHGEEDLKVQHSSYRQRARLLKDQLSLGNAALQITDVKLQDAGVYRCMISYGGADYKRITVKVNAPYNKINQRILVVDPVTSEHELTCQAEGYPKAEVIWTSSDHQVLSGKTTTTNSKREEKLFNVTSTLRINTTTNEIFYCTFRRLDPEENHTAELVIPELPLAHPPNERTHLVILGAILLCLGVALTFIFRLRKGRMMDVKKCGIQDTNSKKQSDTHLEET

EPHA3 expressed on cells = target: T6, EPHA3 expressed on cells (human, UniProt P29320 21-983); test: as above
T6 construct: whole, on cells; also called ephrin type-A receptor 3
T6 sequence (looked up): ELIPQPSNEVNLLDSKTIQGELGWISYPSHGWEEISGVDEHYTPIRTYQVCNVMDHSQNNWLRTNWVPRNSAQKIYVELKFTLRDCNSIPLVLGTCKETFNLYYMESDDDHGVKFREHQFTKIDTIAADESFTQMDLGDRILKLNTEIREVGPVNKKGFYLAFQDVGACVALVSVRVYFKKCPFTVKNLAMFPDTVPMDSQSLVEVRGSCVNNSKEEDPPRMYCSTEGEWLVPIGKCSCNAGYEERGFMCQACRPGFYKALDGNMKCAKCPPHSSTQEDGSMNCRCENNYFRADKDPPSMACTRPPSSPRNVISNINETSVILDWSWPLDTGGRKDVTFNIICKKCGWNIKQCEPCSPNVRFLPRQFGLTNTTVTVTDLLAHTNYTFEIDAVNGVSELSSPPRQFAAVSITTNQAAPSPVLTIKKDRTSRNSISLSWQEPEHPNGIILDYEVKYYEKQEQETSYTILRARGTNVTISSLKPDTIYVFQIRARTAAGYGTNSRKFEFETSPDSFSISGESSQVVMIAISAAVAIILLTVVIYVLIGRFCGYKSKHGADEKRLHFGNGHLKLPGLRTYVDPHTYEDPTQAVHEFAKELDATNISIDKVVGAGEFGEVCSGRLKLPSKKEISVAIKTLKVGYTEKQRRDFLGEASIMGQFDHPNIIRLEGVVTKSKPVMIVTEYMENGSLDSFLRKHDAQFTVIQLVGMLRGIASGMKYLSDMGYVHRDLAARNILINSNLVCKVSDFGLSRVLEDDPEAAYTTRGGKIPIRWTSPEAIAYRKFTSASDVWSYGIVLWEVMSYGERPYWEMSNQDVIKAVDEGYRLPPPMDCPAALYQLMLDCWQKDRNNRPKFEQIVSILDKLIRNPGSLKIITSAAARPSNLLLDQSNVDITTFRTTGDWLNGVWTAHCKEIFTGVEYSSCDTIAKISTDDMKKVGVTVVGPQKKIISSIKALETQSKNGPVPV

[4] = target: T7, EPHA3 extracellular domain (human, UniProt P29320 21-541); test: SPR, EPHA3 ECD-Fc immobilized, ECD-Fc analytes at 250 nM
T7 construct: extracellular domain; ECD construct; also called ephrin type-A receptor 3
T7 sequence (looked up): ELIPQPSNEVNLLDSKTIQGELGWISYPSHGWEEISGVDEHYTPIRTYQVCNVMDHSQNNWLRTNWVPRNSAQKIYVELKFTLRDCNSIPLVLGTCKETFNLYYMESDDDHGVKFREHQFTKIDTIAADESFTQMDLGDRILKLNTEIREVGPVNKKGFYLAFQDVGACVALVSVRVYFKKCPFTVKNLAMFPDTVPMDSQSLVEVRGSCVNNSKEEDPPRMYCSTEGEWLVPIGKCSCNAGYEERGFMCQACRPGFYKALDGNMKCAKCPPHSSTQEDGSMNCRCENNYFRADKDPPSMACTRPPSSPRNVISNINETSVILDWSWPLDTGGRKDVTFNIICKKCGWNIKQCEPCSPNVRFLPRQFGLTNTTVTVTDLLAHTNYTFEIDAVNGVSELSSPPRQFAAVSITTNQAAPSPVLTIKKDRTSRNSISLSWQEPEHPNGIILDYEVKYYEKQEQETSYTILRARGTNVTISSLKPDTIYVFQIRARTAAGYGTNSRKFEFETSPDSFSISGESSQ
Text: (§1) An irrelevant Fc-tagged protein was used as a control. Sensorgram shown is representative of at least 3 independent runs.

[5] = target: B3; test: SPR, calculated in equilibrium; PD-L2 immobilized, His-tagged CEACAM4 ECD as analyte (FIG. 10E)
[6] = target: T8, PD-1 extracellular domain (human, UniProt Q15116 25-170); test: SPR, CEACAM4 ECD-Fc immobilized, ECD-Fc analytes at 250 nM
T8 construct: extracellular domain; ECD construct; also called PDCD1; programmed cell death 1
T8 sequence (Q15116 25-170): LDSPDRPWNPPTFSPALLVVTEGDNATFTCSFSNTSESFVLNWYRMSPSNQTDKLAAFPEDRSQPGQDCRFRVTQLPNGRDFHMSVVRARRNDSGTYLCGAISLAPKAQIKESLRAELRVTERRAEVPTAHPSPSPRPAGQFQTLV
Text: as §1

[7] = target: T2, PD-L1 extracellular domain; test: as above
Text: as §1

B1
binding result (mouse CD177): no binding

B2
binding result [1]: no binding

B3
binding result (ICAM5): binds
binding result [2]: binds
binding result [3]: no binding
binding result (PD-L1 expressed on cells): binds
binding result (EPHA3 expressed on cells): no binding
binding result [4]: no binding (tested: 250 nM)

B4
Kd [5]: 84 nM
binding result [6]: no binding (tested: 250 nM)
binding result [7]: no binding (tested: 250 nM)
